Experimental data as given in patent publication US20210275686A1, “BINDER/ACTIVE AGENT CONJUGATES DIRECTED AGAINST CXCR5, HAVING ENZYMATICALLY CLEAVABLE LINKERS AND IMPROVED ACTIVITY PROFILE” (BAYER AKTIENGESELLSCHAFT, priority 2018, published 2021).
Changes are numbered by the printed parent chain.

B1: TPP-14495 (antibody, human IgG1, lambda, V domains shown)
VH: EVQLLESGGGLVQPGGSLRLSCAASGFTFSNYWMSWVRQAPGKGLEWVSAISGSGGSTRYADSVKGRFTISRDNSKNTLYLQMNSLRAEDTAVYYCTTQRRELGATNWGQGTLVTVSS
VL: QSVLTQPPSASGTPGQRVTISCTGSSSNIGAGYVVHWYQQLPGTAPKLLIYSNNQRPSGVPDRFSGSKSGTSASLAISGLRSEDEADYYCQSYDSSLSGVVFGGGTKLTVLG
modifications: CypHer 5E fluorescent dye coupled to lysine residues (positions not stated)
B2: TPP-10063 (antibody, human IgG1, lambda, V domains shown)
VH: B1 VH with R59Y, Q99L
VL: B1 VL
modifications: CypHer 5E fluorescent dye coupled to lysine residues (positions not stated)
B3: TPP-14511 (antibody, human IgG1, lambda, V domains shown)
VH: B1 VH with S57T, R59Y
VL: B1 VL
modifications: CypHer 5E fluorescent dye coupled to lysine residues (positions not stated)
B4: TPP-14509 (antibody, human IgG1, lambda, V domains shown)
VH: B1 VH with R59Y, T98V
VL: B1 VL
modifications: CypHer 5E fluorescent dye coupled to lysine residues (positions not stated)
B5: TPP-14505 (antibody, human IgG1, lambda, V domains shown)
VH: B1 VH with Y32N, R59Y, T97N, T98V
VL: B1 VL
modifications: CypHer 5E fluorescent dye coupled to lysine residues (positions not stated)
B6: TPP-14499 (antibody, human IgG1, lambda, V domains shown)
VH: B1 VH with M34G, R59Y, T98V, Q99L
VL: B1 VL
modifications: CypHer 5E fluorescent dye coupled to lysine residues (positions not stated)
B7: TPP-14514 (antibody, human IgG1, lambda, V domains shown)
VH: B1 VH with Y32N, R59Y, T98V
VL: B1 VL
modifications: CypHer 5E fluorescent dye coupled to lysine residues (positions not stated)
B8: 40C01 (antibody, human IgG1, kappa, V domains shown)
VH: EVQLLESGGGLVQPGGSLRLSCAASGFTFSRYVMVWVRQAPGKGLEWVSGISPSGGVTRYAASVKGRFTISRDNSKNTLYLQMNSLRAEDTAVYYCARIRKEMTTISYFFDYWGQGTLVTVSS
VL: DIQMTQSPSSLSASVGDRVTITCRASQGVDAYVAWYQQKPGKVPKLLIYSTSTLASGVPSRFSGSGSGTDFTLTISSLQPEDVATYYCQSHNAAVVTFGQGTRLEIKR
modifications: CypHer 5E fluorescent dye coupled to lysine residues (positions not stated)

Legend:
[1] = system: Rec-1: human mantle cell lymphoma cells; test: Cytotoxic activity, CTG assay, Rec-1; type: cell-based; conditions: Rec1, metabolites
Description: (§1) The culturing of the cells is performed according to the standard method, as specified at the American Tissue Culture Collection (ATCC) or the Leibniz-Institut DSMZ-Deutsche Sammlung von Mikroorganismen and Zellkulturen GmbH (DSMZ) for the respective cell lines.
The cells were cultured using the standard method, with the growth media specified under C-1. To perform the test, the suspended cells were counted and seeded in a 96-well culture plate with a white background (Perkin Elmer, NO 10775584) (at 75 μL/well; the resulting cell numbers per well are: Rec-1: 3000 cells/well, HBL-1 and Oci-Ly-1: 6000 cells/well) and incubated in an incubator at 37° C. and 5% carbon dioxide. […] In a parallel plate, the cell vitality was determined at the beginning of the active agent treatment (day 0) with the Cell Titer Glow (CTG) Luminescent Cell Viability Assay (Promega #G7573 and #G7571). For this purpose, 100 μL of the substrate were added per cell batch; then the plates were covered with aluminum foil, shaken for 2 minutes at 180 rpm with the plate shaker, allowed to stand for 8 minutes on the laboratory bench and then measured with a luminometer (Victor X2, Perkin Elmer). The substrate detected the ATP content in the living cells, generating a luminescence signal whose height is directly proportional to the vitality of the cells. […]

[2] = system: Rec-1: human mantle cell lymphoma cells; test: Cytotoxic activity, MTT assay, Rec-1; type: cell-based; conditions: Rec1, metabolites, 96 h
Description: as §1
(§2) The culturing of the cells was performed according to the standard method with the growth media specified under C-1. For execution, the cells were separated with a solution of Accutase in PBS (Biochrom AG #L2143), pelleted, resuspended in culture medium, counted and seeded on a 96-well culture plate with a white background (Costar #3610) (NCI H292: 2500 cells/well; in 100 μL total volume). Then the cells were incubated in an incubator at 37° C. and 5% carbon dioxide. After 48 h a change of medium was performed. […] The cells in the suspension were counted and seeded into a 96-well culture plate with white background (Costar #3610) (#3610) (Rec-1: 3000 cells/well at a total volume of 100 μL). […] After 96 h the cell proliferation was detected using the MTT assay (ATCC, Manassas, Va., USA, Catalog No. 30-1010K). […] The color formed was detected at 570 nm (Infinite M1000 pro, Tecan). Based on the measured data the IC50 of the growth inhibition was calculated using the DRC (dose-response curve). […]

[3] = system: NCI-H292: human mucoepidermoid lung cancer cells; test: Cytotoxic activity, MTT assay, NCI-H292; type: cell-based; conditions: metabolites, 96 h
Description: as §1, §2

[4] = biological target: T1, human kinesin spindle protein KSP/Eg5 (Homo sapiens, UniProt P52732); test: Inhibition of kinesin spindle protein KSP/Eg5 (ATPase, malachite green); type: biochemical; conditions: 10 nM KSP motor domain, microtubules, 500 μM ATP, 2 h RT
T1 construct: The motor domain of the human kinesin spindle protein KSP/Eg5; purchased tebu-bio/Cytoskeleton Inc 027EG01-XL
T1 sequence (P52732 18-359 limits assumed): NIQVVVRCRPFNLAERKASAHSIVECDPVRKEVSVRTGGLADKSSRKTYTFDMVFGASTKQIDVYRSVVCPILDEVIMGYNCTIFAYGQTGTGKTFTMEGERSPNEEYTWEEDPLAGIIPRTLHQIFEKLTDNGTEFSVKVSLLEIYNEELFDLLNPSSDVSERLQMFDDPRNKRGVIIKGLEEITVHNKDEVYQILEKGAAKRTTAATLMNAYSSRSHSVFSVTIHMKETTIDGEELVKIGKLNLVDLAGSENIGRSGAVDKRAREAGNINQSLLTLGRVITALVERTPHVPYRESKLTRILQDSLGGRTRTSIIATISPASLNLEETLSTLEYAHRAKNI

[5] = biological target: CXCR5 (CD185; SwissProt: P32302; NCBI reference sequence: NP_001707.1) (human) (UniProt P32302); test: cell-based or functional assay
legumain = biological target: T2, legumain (Homo sapiens, UniProt Q99538); test: Legumain assay; type: biochemical; conditions: recombinant human legumain (rhlegumain), 3 μM substrate, pH 5.0, read-out: half-life of legumain-mediated cleavage (converted)
T2 construct: purchased R&D Systems 2199-CY
T2 sequence (Q99538 26-323 limits assumed): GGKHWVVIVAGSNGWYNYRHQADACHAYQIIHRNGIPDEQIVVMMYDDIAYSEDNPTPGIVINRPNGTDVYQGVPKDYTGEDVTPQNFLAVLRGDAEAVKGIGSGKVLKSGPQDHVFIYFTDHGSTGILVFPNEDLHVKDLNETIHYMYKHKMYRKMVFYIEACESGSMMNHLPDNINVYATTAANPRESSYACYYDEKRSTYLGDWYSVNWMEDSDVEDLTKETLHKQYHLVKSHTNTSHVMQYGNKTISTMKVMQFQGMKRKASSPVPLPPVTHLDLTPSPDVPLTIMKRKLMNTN
Description: The legumain assay was performed with recombinant human enzyme. The rhlegumain enzyme solution (Catalog #2199-CY, R&D Systems) was diluted to the desired concentration in 50 mM Na acetate buffer/100 mM NaCl, pH4.0, and preincubated for 2 h at 37° C. The rhlegumain was then adjusted to a final concentration of […] in 50 mM MES buffer, 250 mM NaCl, pH 5.0. For each legumain-cleavable prodrug to be investigated, a reaction mixture was made up in a micro-reaction vessel (0.5 ml, Eppendorf). For this, the substrate solution was adjusted with 50 mM MES buffer, 250 mM NaCl, pH 5.0 to the desired concentration (2-fold concentration). For the kinetic measurement of the enzymatic reaction, first 250 μL of the legumain solution was taken and the enzymatic reaction was started by adding 250 μL of the substrate solution (final concentration, single concentration; 3 μM). Samples of 50 μL each were taken at various times. Immediately, 100 μL ice-cold methanol was added to the sample to stop the enzymatic reaction and then frozen at −20° C. The selected sampling times were after 0.5 h, 1 h, 3 h and 24 h. The samples were then examined by RP-HPLC analysis and by LC-MS. The determination of the toxophore released enabled the determination of the half-time t1/2 of the enzymatic reaction.

[6] = biological target: T3, CXCR5 (CD185; SwissProt: P32302; NCBI reference sequence: NP_001707.1) (human, UniProt P32302 1-372); test: cell-based or functional assay
T3 sequence: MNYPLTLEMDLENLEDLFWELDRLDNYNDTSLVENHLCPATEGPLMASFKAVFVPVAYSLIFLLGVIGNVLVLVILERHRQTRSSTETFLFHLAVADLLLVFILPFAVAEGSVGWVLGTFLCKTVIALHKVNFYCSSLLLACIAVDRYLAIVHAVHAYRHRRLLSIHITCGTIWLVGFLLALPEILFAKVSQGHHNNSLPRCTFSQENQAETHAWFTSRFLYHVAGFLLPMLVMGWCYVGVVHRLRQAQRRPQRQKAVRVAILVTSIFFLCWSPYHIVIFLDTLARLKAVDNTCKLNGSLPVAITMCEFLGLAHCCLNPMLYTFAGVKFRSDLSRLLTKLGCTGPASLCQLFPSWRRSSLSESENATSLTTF

Molecule | Internalization Rec-1 [MFI] [6] [MFI] | Internalization SU-DHL-6 [MFI] [6] [MFI] | other results
CC(C)(C)[C@H](c1cc(-c2cc(F)ccc2F)cn1Cc1ccccc1)N(CCCN)C(=O)CO [Reference Example R1M, N-(3-Aminopropyl)-N-{(IR)-1-[1-benzyl-4-(2,5-difluorophenyl)-IH-pyrrol-2-yl]-2,2-dimethylpropyl}-2-hydroxyacetamide, reference compound] | – | – | IC50 [1]: 205 pM; IC50 [2]: 293 pM; IC50 [3]: 270 pM; IC50 [4]: 1090 pM
Isotype control (antibody) | – | – | Internalization Rec-1 [MFI] [5]: 2 MFI; Internalization SU-DHL-6 [MFI] [5]: 1 MFI
CNC(=O)[C@H](CCN(C(=O)CO)[C@@H](c1cc(-c2cc(F)ccc2F)cn1Cc1ccccc1)C(C)(C)C)NC(=O)[C@H](CC(N)=O)NC(=O)[C@H](C)N(C)C(=O)[C@H](C)NC(=O)Cc1ccncc1 [Model Compound A] | – | – | half-life at 3 µM (legumain): 30 min
CC(C)(C)[C@H](c1cc(-c2cc(F)ccc2F)cn1Cc1ccccc1)N(CC[C@H](N)C(=O)NCCC(=O)N[C@H](CCC(=O)O)C(=O)O)C(=O)CO [Example M1, N-{(2S)-2-Amino-4-[{(1R)-1-[1-benzyl-4-(2,5-difluorophenyl)-1H-pyrrol-2-yl]-2,2-dimethylpropyl}(glycoloyl)amino]butanoyl}-beta-alanyl-D-glutamic acid] | – | – | IC50 [1]: 309000 pM; IC50 [2]: 387000 pM
B1 | 84 | 12 | –
B2 | 65 | 22 | –
B3 | 99 | 24 | –
B4 | 129 | 51 | –
B5 | 135 | 61 | –
B6 | 122 | 55 | –
B7 | 134 | 53 | –
B8 | 49 | 13 | –
